Patent US20210388087A1 (Chugai, published 2021)

target: T1, CD3 epsilon homodimer protein (UniProt P07766 23-126); assay: SPR, CD3 epsilon homodimer on chip, one-arm antibody as analyte;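 further: surface plasmon resonance at 25 °C with CD3 epsilon homodimer amine-coupled to a CM4 sensor chip, antibody injected as analyte, HBS-EP+ as running buffer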
T1 construct: also called CD3 (CD3 epsilon)
T1 sequence (P07766 23-126): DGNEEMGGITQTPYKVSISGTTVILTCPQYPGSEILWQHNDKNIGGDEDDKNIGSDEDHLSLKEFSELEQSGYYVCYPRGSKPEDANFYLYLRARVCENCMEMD

Binder	KD ratio (KD of CE115HA000/KD of altered form)
CE115HA000 K52bD (antibody, human IgG1, kappa, L234A L235A, N297A, name in Kabat numbering, one-arm antibody) heavy: QVQLVESGGGVVQPGRSLRLSCAASGFTFSNAWMHWVRQAPGKGLEWVAQIKADSNNYATYYAESVKGRFTISRDDSKNSLYLQMNSLKTEDTAVYYCRYVHYGAYYGVDAWGQGTTVTVSSASTKGPSVFPLAPSSKSTSGGTAALGCLVKDYFPEPVTVSWNSGALTSGVHTFPAVLQSSGLYSLSSVVTVPSSSLGTQTYICNVNHKPSNTKVDKKVEPKSCDKTHTCPPCPAPEAAGGPSVFLFPPKPKDTLMISRTPEVTCVVVDVSHEDPEVKFNWYVDGVEVHNAKTKPREEQYASTYRVVSVLTVLHQDWLNGKEYKCKVSNKALPAPIEKTISKAKGQPREPQVYTLPPSRCELTKNQVSLSCAVKGFYPSDIAVEWESNGQPENNYKTTPPVLDSDGSFFLVSKLTVDKSRWQQGNVFSCSVMHEALHNHYTQKSLSLSPDYKDDDDK EPKSSDKTHTCPPCPAPELLGGPSVFLFPPKPKDTLMISRTPEVTCVVVDVSHEDPEVKFNWYVDGVEVHNAKTKPREEQYNSTYRVVSVLTVLHQDWLNGKEYKCKVSNKALPAPIEKTISKAKGQPREPQVCTLPPSRDELTKNQVSLWCLVKGFYPSDIAVEWESNGQPENNYKTTPPVLDSDGSFFLYSKLTVDKSRWQQGNVFSCSVMHEALHNRYTQKSLSLSP light: DIVMTQSPLSLPVTPGEPASISCRSSQSLVHSNRNTYLHWYQQKPGQAPRLLIYKVSNRFSGVPDRFSGSGSGTDFTLKISRVEAEDVGVYYCGQGTQVPYTFGQGTKLEIKRTVAAPSVFIFPPSDEQLKSGTASVVCLLNNFYPREAKVQWKVDNALQSGNSQESVTEQDSKDSTYSLSSTLTLSKADYEKHKVYACEVTHQGLSSPVTKSFNRGEC	0.56
CE115HA000 K52bQ (antibody, human IgG1, kappa, L234A L235A, N297A, name in Kabat numbering, one-arm antibody) heavy: QVQLVESGGGVVQPGRSLRLSCAASGFTFSNAWMHWVRQAPGKGLEWVAQIKAQSNNYATYYAESVKGRFTISRDDSKNSLYLQMNSLKTEDTAVYYCRYVHYGAYYGVDAWGQGTTVTVSSASTKGPSVFPLAPSSKSTSGGTAALGCLVKDYFPEPVTVSWNSGALTSGVHTFPAVLQSSGLYSLSSVVTVPSSSLGTQTYICNVNHKPSNTKVDKKVEPKSCDKTHTCPPCPAPEAAGGPSVFLFPPKPKDTLMISRTPEVTCVVVDVSHEDPEVKFNWYVDGVEVHNAKTKPREEQYASTYRVVSVLTVLHQDWLNGKEYKCKVSNKALPAPIEKTISKAKGQPREPQVYTLPPSRCELTKNQVSLSCAVKGFYPSDIAVEWESNGQPENNYKTTPPVLDSDGSFFLVSKLTVDKSRWQQGNVFSCSVMHEALHNHYTQKSLSLSPDYKDDDDK EPKSSDKTHTCPPCPAPELLGGPSVFLFPPKPKDTLMISRTPEVTCVVVDVSHEDPEVKFNWYVDGVEVHNAKTKPREEQYNSTYRVVSVLTVLHQDWLNGKEYKCKVSNKALPAPIEKTISKAKGQPREPQVCTLPPSRDELTKNQVSLWCLVKGFYPSDIAVEWESNGQPENNYKTTPPVLDSDGSFFLYSKLTVDKSRWQQGNVFSCSVMHEALHNRYTQKSLSLSP light: DIVMTQSPLSLPVTPGEPASISCRSSQSLVHSNRNTYLHWYQQKPGQAPRLLIYKVSNRFSGVPDRFSGSGSGTDFTLKISRVEAEDVGVYYCGQGTQVPYTFGQGTKLEIKRTVAAPSVFIFPPSDEQLKSGTASVVCLLNNFYPREAKVQWKVDNALQSGNSQESVTEQDSKDSTYSLSSTLTLSKADYEKHKVYACEVTHQGLSSPVTKSFNRGEC	0.62
CE115HA000 K52bL (antibody, human IgG1, kappa, L234A L235A, N297A, name in Kabat numbering, one-arm antibody) heavy: QVQLVESGGGVVQPGRSLRLSCAASGFTFSNAWMHWVRQAPGKGLEWVAQIKALSNNYATYYAESVKGRFTISRDDSKNSLYLQMNSLKTEDTAVYYCRYVHYGAYYGVDAWGQGTTVTVSSASTKGPSVFPLAPSSKSTSGGTAALGCLVKDYFPEPVTVSWNSGALTSGVHTFPAVLQSSGLYSLSSVVTVPSSSLGTQTYICNVNHKPSNTKVDKKVEPKSCDKTHTCPPCPAPEAAGGPSVFLFPPKPKDTLMISRTPEVTCVVVDVSHEDPEVKFNWYVDGVEVHNAKTKPREEQYASTYRVVSVLTVLHQDWLNGKEYKCKVSNKALPAPIEKTISKAKGQPREPQVYTLPPSRCELTKNQVSLSCAVKGFYPSDIAVEWESNGQPENNYKTTPPVLDSDGSFFLVSKLTVDKSRWQQGNVFSCSVMHEALHNHYTQKSLSLSPDYKDDDDK EPKSSDKTHTCPPCPAPELLGGPSVFLFPPKPKDTLMISRTPEVTCVVVDVSHEDPEVKFNWYVDGVEVHNAKTKPREEQYNSTYRVVSVLTVLHQDWLNGKEYKCKVSNKALPAPIEKTISKAKGQPREPQVCTLPPSRDELTKNQVSLWCLVKGFYPSDIAVEWESNGQPENNYKTTPPVLDSDGSFFLYSKLTVDKSRWQQGNVFSCSVMHEALHNRYTQKSLSLSP light: DIVMTQSPLSLPVTPGEPASISCRSSQSLVHSNRNTYLHWYQQKPGQAPRLLIYKVSNRFSGVPDRFSGSGSGTDFTLKISRVEAEDVGVYYCGQGTQVPYTFGQGTKLEIKRTVAAPSVFIFPPSDEQLKSGTASVVCLLNNFYPREAKVQWKVDNALQSGNSQESVTEQDSKDSTYSLSSTLTLSKADYEKHKVYACEVTHQGLSSPVTKSFNRGEC	0.61

Results, then the binder that gave them:

KD ratio (KD of CE115HA000/KD of altered form)	Binder
0.58	CE115HA000 K52bA (antibody, human IgG1, kappa, L234A L235A, N297A, name in Kabat numbering, one-arm antibody) heavy: QVQLVESGGGVVQPGRSLRLSCAASGFTFSNAWMHWVRQAPGKGLEWVAQIKAASNNYATYYAESVKGRFTISRDDSKNSLYLQMNSLKTEDTAVYYCRYVHYGAYYGVDAWGQGTTVTVSSASTKGPSVFPLAPSSKSTSGGTAALGCLVKDYFPEPVTVSWNSGALTSGVHTFPAVLQSSGLYSLSSVVTVPSSSLGTQTYICNVNHKPSNTKVDKKVEPKSCDKTHTCPPCPAPEAAGGPSVFLFPPKPKDTLMISRTPEVTCVVVDVSHEDPEVKFNWYVDGVEVHNAKTKPREEQYASTYRVVSVLTVLHQDWLNGKEYKCKVSNKALPAPIEKTISKAKGQPREPQVYTLPPSRCELTKNQVSLSCAVKGFYPSDIAVEWESNGQPENNYKTTPPVLDSDGSFFLVSKLTVDKSRWQQGNVFSCSVMHEALHNHYTQKSLSLSPDYKDDDDK EPKSSDKTHTCPPCPAPELLGGPSVFLFPPKPKDTLMISRTPEVTCVVVDVSHEDPEVKFNWYVDGVEVHNAKTKPREEQYNSTYRVVSVLTVLHQDWLNGKEYKCKVSNKALPAPIEKTISKAKGQPREPQVCTLPPSRDELTKNQVSLWCLVKGFYPSDIAVEWESNGQPENNYKTTPPVLDSDGSFFLYSKLTVDKSRWQQGNVFSCSVMHEALHNRYTQKSLSLSP light: DIVMTQSPLSLPVTPGEPASISCRSSQSLVHSNRNTYLHWYQQKPGQAPRLLIYKVSNRFSGVPDRFSGSGSGTDFTLKISRVEAEDVGVYYCGQGTQVPYTFGQGTKLEIKRTVAAPSVFIFPPSDEQLKSGTASVVCLLNNFYPREAKVQWKVDNALQSGNSQESVTEQDSKDSTYSLSSTLTLSKADYEKHKVYACEVTHQGLSSPVTKSFNRGEC
0.43	CE115HA000 K52bN (antibody, human IgG1, kappa, L234A L235A, N297A, name in Kabat numbering, one-arm antibody) heavy: QVQLVESGGGVVQPGRSLRLSCAASGFTFSNAWMHWVRQAPGKGLEWVAQIKANSNNYATYYAESVKGRFTISRDDSKNSLYLQMNSLKTEDTAVYYCRYVHYGAYYGVDAWGQGTTVTVSSASTKGPSVFPLAPSSKSTSGGTAALGCLVKDYFPEPVTVSWNSGALTSGVHTFPAVLQSSGLYSLSSVVTVPSSSLGTQTYICNVNHKPSNTKVDKKVEPKSCDKTHTCPPCPAPEAAGGPSVFLFPPKPKDTLMISRTPEVTCVVVDVSHEDPEVKFNWYVDGVEVHNAKTKPREEQYASTYRVVSVLTVLHQDWLNGKEYKCKVSNKALPAPIEKTISKAKGQPREPQVYTLPPSRCELTKNQVSLSCAVKGFYPSDIAVEWESNGQPENNYKTTPPVLDSDGSFFLVSKLTVDKSRWQQGNVFSCSVMHEALHNHYTQKSLSLSPDYKDDDDK EPKSSDKTHTCPPCPAPELLGGPSVFLFPPKPKDTLMISRTPEVTCVVVDVSHEDPEVKFNWYVDGVEVHNAKTKPREEQYNSTYRVVSVLTVLHQDWLNGKEYKCKVSNKALPAPIEKTISKAKGQPREPQVCTLPPSRDELTKNQVSLWCLVKGFYPSDIAVEWESNGQPENNYKTTPPVLDSDGSFFLYSKLTVDKSRWQQGNVFSCSVMHEALHNRYTQKSLSLSP light: DIVMTQSPLSLPVTPGEPASISCRSSQSLVHSNRNTYLHWYQQKPGQAPRLLIYKVSNRFSGVPDRFSGSGSGTDFTLKISRVEAEDVGVYYCGQGTQVPYTFGQGTKLEIKRTVAAPSVFIFPPSDEQLKSGTASVVCLLNNFYPREAKVQWKVDNALQSGNSQESVTEQDSKDSTYSLSSTLTLSKADYEKHKVYACEVTHQGLSSPVTKSFNRGEC
0.91	CE115HA000 K52bR (antibody, human IgG1, kappa, L234A L235A, N297A, name in Kabat numbering, one-arm antibody) heavy: QVQLVESGGGVVQPGRSLRLSCAASGFTFSNAWMHWVRQAPGKGLEWVAQIKARSNNYATYYAESVKGRFTISRDDSKNSLYLQMNSLKTEDTAVYYCRYVHYGAYYGVDAWGQGTTVTVSSASTKGPSVFPLAPSSKSTSGGTAALGCLVKDYFPEPVTVSWNSGALTSGVHTFPAVLQSSGLYSLSSVVTVPSSSLGTQTYICNVNHKPSNTKVDKKVEPKSCDKTHTCPPCPAPEAAGGPSVFLFPPKPKDTLMISRTPEVTCVVVDVSHEDPEVKFNWYVDGVEVHNAKTKPREEQYASTYRVVSVLTVLHQDWLNGKEYKCKVSNKALPAPIEKTISKAKGQPREPQVYTLPPSRCELTKNQVSLSCAVKGFYPSDIAVEWESNGQPENNYKTTPPVLDSDGSFFLVSKLTVDKSRWQQGNVFSCSVMHEALHNHYTQKSLSLSPDYKDDDDK EPKSSDKTHTCPPCPAPELLGGPSVFLFPPKPKDTLMISRTPEVTCVVVDVSHEDPEVKFNWYVDGVEVHNAKTKPREEQYNSTYRVVSVLTVLHQDWLNGKEYKCKVSNKALPAPIEKTISKAKGQPREPQVCTLPPSRDELTKNQVSLWCLVKGFYPSDIAVEWESNGQPENNYKTTPPVLDSDGSFFLYSKLTVDKSRWQQGNVFSCSVMHEALHNRYTQKSLSLSP light: DIVMTQSPLSLPVTPGEPASISCRSSQSLVHSNRNTYLHWYQQKPGQAPRLLIYKVSNRFSGVPDRFSGSGSGTDFTLKISRVEAEDVGVYYCGQGTQVPYTFGQGTKLEIKRTVAAPSVFIFPPSDEQLKSGTASVVCLLNNFYPREAKVQWKVDNALQSGNSQESVTEQDSKDSTYSLSSTLTLSKADYEKHKVYACEVTHQGLSSPVTKSFNRGEC
